Measured values reported in patent publication US20240190986A1 (ZHEJIANG NANOMAB TECHNOLOGY CENTER, published 2024).

Experiments:
MSLN.Fc protein = target: T1, MSLN.Fc protein (human, UniProt Q13421 296-598, limits assumed); assay: ELISA, antigen coated, TG1 supernatant
T1 construct: also called MSLN·hFc; MSLN protein; not shown: human IgG Fc fragment

MD50 protein = target: T2, MD50 protein; assay: ELISA, antigen coated, TG1 supernatant
T2 construct: range 487-580; also called proximal membrane fragment of mesothelin
T2 sequence (Q13421 495-588): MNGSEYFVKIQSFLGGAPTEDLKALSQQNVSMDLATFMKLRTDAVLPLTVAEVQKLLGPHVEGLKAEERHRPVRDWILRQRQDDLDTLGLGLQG

MSLN·His protein = target: T3, MSLN·His protein (human, UniProt Q13421 296-580, limits assumed); assay: SPR (Biacore), antibody captured on protein A, MSLN·His as analyte
T3 construct: Bought protein; also called human MSLN·His antigen; not shown: His tag
T3 sequence (Q13421 other isoform, or with tags, fused parts or gaps limits assumed): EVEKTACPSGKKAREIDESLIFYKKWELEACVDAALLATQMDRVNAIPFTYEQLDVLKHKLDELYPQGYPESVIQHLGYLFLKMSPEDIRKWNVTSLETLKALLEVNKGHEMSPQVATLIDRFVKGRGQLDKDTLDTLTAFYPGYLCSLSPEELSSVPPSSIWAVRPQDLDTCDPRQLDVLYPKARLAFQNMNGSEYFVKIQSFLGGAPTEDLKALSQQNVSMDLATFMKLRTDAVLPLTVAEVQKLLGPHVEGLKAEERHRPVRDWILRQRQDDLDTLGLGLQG
Text: Referring to the method of humanizing nanoantibodies (J. Biol. Chem. 2009; 284: 3273-3284), M2339 was humanized using the method of CDR region transplantation. In IgBLAST (http://www.ncbi.nlm.nih.gov/igblast/), germline with high homology with M2339 was selected as the template in the database. Biacore was used to detect the affinity of the antibody before and after humanization. The purified antibody was flowed through the sensor chip pre-fixed with protein A, and the antibody was captured by protein A. Then five different concentrations of MSLN·His protein were used as the mobile phase, and the association time and dissociation time were 30 min and 60 min, respectively. The binding rate (ka), dissociation rate (kd), and equilibrium constant (kd) were analyzed using Biacore Evaluation Software 2.0 (GE).

T1 sequence (Q13421 other isoform, or with tags, fused parts or gaps limits assumed): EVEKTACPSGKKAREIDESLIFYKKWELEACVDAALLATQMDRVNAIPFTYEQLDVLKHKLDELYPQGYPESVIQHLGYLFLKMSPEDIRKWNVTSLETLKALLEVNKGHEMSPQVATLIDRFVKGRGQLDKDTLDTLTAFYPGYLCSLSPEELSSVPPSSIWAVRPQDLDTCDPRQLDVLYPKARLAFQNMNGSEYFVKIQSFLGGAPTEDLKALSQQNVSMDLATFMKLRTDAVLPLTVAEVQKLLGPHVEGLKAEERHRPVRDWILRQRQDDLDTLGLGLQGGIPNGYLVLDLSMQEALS

Row | Binder | ELISA (OD450) (MSLN.Fc protein) | ELISA (OD450) (MD50 protein) | Kd (MSLN·His protein) [nM] | koff (MSLN·His protein) [s⁻¹] | kon (MSLN·His protein) [M⁻¹ s⁻¹]
1 | M005 (VHH, Nanoantibody in TG1 supernatant in the screening ELISA; also called clone M005) VHH: EVQLVESGGGWVQSGGSLRLACAASGSSFGLNVVGWYRQAPDKQRELVASIGNGGRTTDYADSVKGRFTISSDNAKNTVFLQMNDLKPEDTAVYYCHLRASVTKGYWGQGTQVTVSS | 1.18 | 1.03 |  |  | 
2 | M126 (VHH, Nanoantibody in TG1 supernatant in the screening ELISA; also called clone M126) VHH: EVQLVESGGGWVQSGGSLRLACAASGDSFGLNVVGWYRLAPDKQRELVASIGNGGRTTDYADSVKGRFTISSDNAKNTVFLQMNDLKPEDTAMYYCHLRVSVTEGYWGQGTQVTVSS | 1.95 | 0.926 |  |  | 
3 | M050 (VHH, Nanoantibody in TG1 supernatant in the screening ELISA; also called clone M050) VHH: EVQLQESGGGLVQAGGSLRLSCAASGAVSSINAMGWYRQTPEKVRKLVATMGSGGNTYYADSVKGRFTISRDYAKNTVALQMNNLIPEDTAVYYCAADKFGADIHEVDYWGKGTLVTVSS | 2.72 | 0.512 |  |  | 
4 | M047 (VHH, Nanoantibody in TG1 supernatant in the screening ELISA; also called clone M047) VHH: QVQLVETGGGSVQAGGSLRLSCAASGSIASIDAMGWYRQVPGKEWERELVATISSSNSDNKYYKDSVKGRFTISTNIAKNTWYLQMNNLKPEDTAMYYCAAEDYDTKDRFWGQGTQVTVSS | 1.98 | 2.07 |  |  | 
5 | M012 (VHH, Nanoantibody in TG1 supernatant in the screening ELISA; also called clone M012) VHH: QVQLVESGGDLVQTGGSLRLSCVVSGSTFAINAMGWYRQAPGKERELVAAISSGGDSTHYADDVKGRFTISRDNAENTMYLQMKSLKPEDTAVYVCNARGCRDFHNPQALCVLRDYWGQGTQVTVSS | 0.938 | 2.05 |  |  | 
6 | M010 (VHH, Nanoantibody in TG1 supernatant in the screening ELISA; also called clone M010) VHH: QVQLVESGGGLVQAGGSLRLSCAASGSVSSINAMGWYRQGTGEVRKLVATMGSGGNTYYADSVKGRFFITRDYSKNTVSLQMNNLTPEDSATYYCAADRFGASIHEVDYWGKGTLVTVSS | 2.75 | 2.09 |  |  | 
7 | M044 (VHH, Nanoantibody in TG1 supernatant in the screening ELISA; also called clone M044; M044 antibody) VHH: QVQVVESGGGFVQAGGSLRLSCAASTPIISIAYMGWYRQISEKERQLVATINSGGKTYYADSVKGRFTISRDNAKNTLYLQMNMLKPEDTGMYYCAASNKDYNDYDPDWGQGTQVTVSS | 2.2 | 2.04 |  |  | 
8 | M001 (VHH, Nanoantibody in TG1 supernatant in the screening ELISA; also called clone M001) VHH: EVQLVESGGGLVQAGGSLRLSCAASGSIFNINAMGWYRQAPGKEWERELVATISSSNSDNTYYKDSVKGRFTISTNTAKNTWYLQMNSLKPEDTAMYYCAAENYDRKDRYWGQGTQVTVSS | 1.72 | 1.35 |  |  | 
9 | M003 (VHH, Nanoantibody in TG1 supernatant in the screening ELISA; also called clone M003) VHH: QVQLVESGGGLVQAGGSLRLSCTASGNIFSINAMGWYRQPPGKEWERELVATISSTNSDNTYYKESVKGRFTISTNTAKNTWYLQMNSLKPEDTAMYYCAAENFDRKDRYWAQGTQVTVSS | 2.38 | 1.73 |  |  | 
10 | M032 (VHH, Nanoantibody in TG1 supernatant in the screening ELISA; also called clone M032) VHH: EVQLVESGGGSVQAGGSLKISCAASGSVIDIGAMGWYRHITEKERKLVATINAGGNTYYADSVKGRFTISRDNAKYTVYLQMNSLKPEDTAMYYCAAEDINYTGTEAYYWGQGTQVTVSS | 1.41 | 1.72 |  |  | 
11 | M2339-z11-1 (antibody, IgG4, V domains shown, Humanized variant of M2339) VH: EVQLVASGGGLVQPGGSLRLSCALSGFTLRELDEFAIGWFRQAPGKEREGVSCISGTGGITHYADSVKGRFTISRDNSKTTVYLQMNSLRAEDTAVYYCAADERCTDRLIRPPTYWGQGTQVTVSS |  |  | 59.5 | 0.00608 | 102000
12 | M2339-z11-17 (antibody, IgG4, V domains shown, Humanized variant of M2339) VH: ELQLGASGGGLVQPGGSLRLSCALSGFTLRELDEFAIGWFRQAPGKEREGVSCISGTGGITHYADSVKGRFTISRDNSKNTLYLQMNSLRAEDTAVYYCAADERCTDRLIRPPTYWGQGTQVTVSS |  |  | 3.98 | 0.000156 | 39300
13 | M2339-z11-6 (antibody, IgG4, V domains shown, Humanized variant of M2339) VH: EVQLVASGGGLVQPGGSLRLSCALSGFTLRELDEFAIGWFRQAPGKEREGVSCISGTGGITHYADSVKGRFTISRDNSKTTVYLQMNSLRSEDTAVYYCAADERCTDRLIRPPTYWGQGTQVTVSS |  |  | 47.4 | 0.00824 | 174000
14 | M2339-z11-2 (antibody, IgG4, V domains shown, Humanized variant of M2339) VH: QVQLVASGGGLVQPGGSLRLSCALSGFTLRELDEFAIGWFRQAPGKEREGVSCISGTGGITHYADSVKGRFTISRDNSKTTVYLQMNSLRAEDTAVYYCAADERCTDRLIRPPTYWGQGTQVTVSS |  |  | 0.279 | 1.74e-05 | 62300
15 | M2339-z11-10 (antibody, IgG4, V domains shown, Humanized variant of M2339) VH: QLQLVESGGGLVQPGGSLRLSCALSGFTLRELDEFAIGWFRQAPGKEREGVSCISGTGGITHYADSVKGRFTISRDIAKTTVYLQMNSLNSEDTAVYYCAADERCTDRLIRPPTYWGQGTQVTVSS |  |  | 0.239 | 9.81e-06 | 41000
16 | M2339-z11-8 (antibody, IgG4, V domains shown, Humanized variant of M2339) VH: QLQLGESGGGLVQPGGSLRLSCALSGFTLRELDEFAIGWFRQAPGKEREGVSCISGTGGITHYADSVKGRFTISRDIAKTTVYLQMNSLNSEDTAVYYCAADERCTDRLIRPPTYWGQGTQVTVSS |  |  | 0.361 | 1.6e-05 | 44300
17 | M2339-z11-5 (antibody, IgG4, V domains shown, Humanized variant of M2339) VH: EVQLVASGGGLVQPGGSLRLSCALSGFTLRELDEFAIGWFRQAPGKEREGVSCISGTGGITHYADSVKGRFTISRDNSKTTVYLQMNSLNAEDTAVYYCAADERCTDRLIRPPTYWGQGTQVTVSS |  |  | 37.7 | 0.00878 | 233000
18 | M2339-z11-12 (antibody, IgG4, V domains shown, Humanized variant of M2339) VH: EVQLGASGGGLVQPGGSLRLSCALSGFTLRELDEFAIGWFRQAPGKEREGVSCISGTGGITHYADSVKGRFTISRDIAKTTVYLQMNSLNSEDTAVYYCAADERCTDRLIRPPTYWGQGTQVTVSS |  |  | 12.2 | 0.00102 | 83800
19 | M2339-z11-14 (antibody, IgG4, V domains shown, Humanized variant of M2339) VH: QLQLGASGGGLVQPGGSLRLSCALSGFTLRELDEFAIGWFRQAPGKEREGVSCISGTGGITHYADSVKGRFTISRDIAKNTVYLQMNSLNSEDTAVYYCAADERCTDRLIRPPTYWGQGTQVTVSS |  |  | 0.228 | 1.01e-05 | 44400
20 | M2339-z11-7 (antibody, IgG4, V domains shown, Humanized variant of M2339) VH: ELQLGASGGGLVQPGGSLRLSCALSGFTLRELDEFAIGWFRQAPGKEREGVSCISGTGGITHYADSVKGRFTISRDNSKTTVYLQMNSLRAEDTAVYYCAADERCTDRLIRPPTYWGQGTQVTVSS |  |  | 1.3 | 5.18e-05 | 39800
21 | M2339-z11-13 (antibody, IgG4, V domains shown, Humanized variant of M2339) VH: QLQLGASGGGLVQPGGSLRLSCALSGFTLRELDEFAIGWFRQAPGKEREGVSCISGTGGITHYADSVKGRFTISRDNSKTTVYLQMNSLNSEDTAVYYCAADERCTDRLIRPPTYWGQGTQVTVSS |  |  | 0.142 | 9.29e-06 | 65200
22 | M2339-z11-9 (antibody, IgG4, V domains shown, Humanized variant of M2339) VH: QLQLVASGGGLVQPGGSLRLSCALSGFTLRELDEFAIGWFRQAPGKEREGVSCISGTGGITHYADSVKGRFTISRDIAKTTVYLQMNSLNSEDTAVYYCAADERCTDRLIRPPTYWGQGTQVTVSS |  |  | 0.143 | 1.2e-05 | 83800
23 | M2339-z11-16 (antibody, IgG4, V domains shown, Humanized variant of M2339) VH: QLQLGASGGGLVQPGGSLRLSCALSGFTLRELDEFAIGWFRQAPGKEREGVSCISGTGGITHYADSVKGRFTISRDIAKTTVYLQMNSLRAEDTAVYYCAADERCTDRLIRPPTYWGQGTQVTVSS |  |  | 0.0961 | 6.52e-06 | 67800
24 | M2339-z11-3 (antibody, IgG4, V domains shown, Humanized variant of M2339) VH: ELQLVASGGGLVQPGGSLRLSCALSGFTLRELDEFAIGWFRQAPGKEREGVSCISGTGGITHYADSVKGRFTISRDNSKTTVYLQMNSLRAEDTAVYYCAADERCTDRLIRPPTYWGQGTQVTVSS |  |  | 2.78 | 0.000132 | 47400
25 | M2339-z11-4 (antibody, IgG4, V domains shown, Humanized variant of M2339) VH: EVQLGASGGGLVQPGGSLRLSCALSGFTLRELDEFAIGWFRQAPGKEREGVSCISGTGGITHYADSVKGRFTISRDNSKTTVYLQMNSLRAEDTAVYYCAADERCTDRLIRPPTYWGQGTQVTVSS |  |  | 14.9 | 0.00119 | 80000
26 | M2339-z11-11 (antibody, IgG4, V domains shown, Humanized variant of M2339) VH: QLQLGASGGGLVQPGGSLRLSCAASGFTLRELDEFAIGWFRQAPGKEREGVSCISGTGGITHYADSVKGRFTISRDIAKTTVYLQMNSLNSEDTAVYYCAADERCTDRLIRPPTYWGQGTQVTVSS |  |  | 0.274 | 1.18e-05 | 43000
27 | M2339-z11-15 (antibody, IgG4, V domains shown, Humanized variant of M2339) VH: QLQLGASGGGLVQPGGSLRLSCALSGFTLRELDEFAIGWFRQAPGKEREGVSCISGTGGITHYADSVKGRFTISRDIAKTTLYLQMNSLNSEDTAVYYCAADERCTDRLIRPPTYWGQGTQVTVSS |  |  | 0.16 | 1.14e-05 | 71000
